This passage reports Kd results from publication PMC6945063 (2019).

This experiment concerns the target His‐GABARAP‐L2 S87/88D (human, UniProt P60520 1-117, S87/88D | S87/88D). Description: BLI.

B1: GST‐ATG4A (enzyme)
chain: MESVLSKYEDQITIFTDYLEEYPDTDELVWILGKQHLLKTEKSKLLSDISARLWFTYRRKFSPIGGTGPSSDAGWGCMLRCGQMMLAQALICRHLGRDWSWEKQKEQPKEYQRILQCFLDRKDCCYSIHQMAQMGVGEGKSIGEWFGPNTVAQVLKKLALFDEWNSLAVYVSMDNTVVIEDIKKMCRVLPLSADTAGDRPPDSLTASNQSKGTSAYCSAWKPLLLIVPLRLGINQINPVYVDAFKECFKMPQSLGALGGKPNNAYYFIGFLGDELIFLDPHTTQTFVDTEENGTVNDQTFHCLQSPQRMNILNLDPSVALGFFCKEEKDFDNWCSLVQKEILKENLRMFELVQKHPSHWPPFVPPAKPEVTTTGAEFIDSTEQLEEFDLEEDFEILSV
The molecule B1 showed an equilibrium dissociation constant (Kd) of 24 µM.
